Like-named read-outs stand apart in the source and are kept apart here.

Here are results for seven substances from PMC10851439 (Biochemistry, 2024).

In data set [1] the test system is NTHi strain 86–028NP (parent strain). The experiment in a line: Bactericidal assay, parental strain. It is filed as cell-based, nontypeable Haemophilus influenzae. The settings on record: 10 μg/mL AMP, 1 h.
Data set [2] has as its target T1, NTHi SapA (Haemophilus influenzae, UniProt Q4QL73).
T1 sequence (Q4QL73 32-546): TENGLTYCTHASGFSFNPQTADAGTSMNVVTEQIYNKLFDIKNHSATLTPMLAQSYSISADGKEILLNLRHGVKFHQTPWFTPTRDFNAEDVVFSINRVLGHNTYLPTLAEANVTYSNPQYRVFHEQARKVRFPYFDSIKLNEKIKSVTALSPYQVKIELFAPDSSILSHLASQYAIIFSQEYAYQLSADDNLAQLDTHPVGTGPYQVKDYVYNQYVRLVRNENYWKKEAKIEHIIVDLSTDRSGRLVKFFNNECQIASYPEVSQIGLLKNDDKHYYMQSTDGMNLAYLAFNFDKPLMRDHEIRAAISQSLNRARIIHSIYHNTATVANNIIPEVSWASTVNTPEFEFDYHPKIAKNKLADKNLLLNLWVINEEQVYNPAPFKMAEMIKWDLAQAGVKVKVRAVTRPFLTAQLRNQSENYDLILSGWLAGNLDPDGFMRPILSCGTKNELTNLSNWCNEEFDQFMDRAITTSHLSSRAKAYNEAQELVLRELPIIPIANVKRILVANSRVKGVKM
The data set is described as follows: SPR single-cycle kinetics, SapA over immobilized AMPs. It is filed as binding, nontypeable Haemophilus influenzae. Particulars: LL-37 immobilized on SPR sensor chip, five increasing SapA concentrations.

The conditions of data set [3]: at the concentrations used for affinity experiments; cited from earlier work.
In data set [4] the target is T1, NTHi SapA. The experiment in a line: Spectral shift assay with fluorescently labeled SapA. It is filed as binding, nontypeable Haemophilus influenzae. Particulars: peptide up to 100 or 500 μM, triplicate.
Data set [5] has as its system NTHi 86–028NP ΔsapA mutant. The data set is described as follows: Bactericidal assay, ΔsapA mutant. The settings on record: 10 μg/mL AMP, 1 h. It is filed as cell-based, nontypeable Haemophilus influenzae.
Data set [6] can be described thus: Dynamic light scattering of LL-37. It is filed as physicochemical. Particulars: LL-37 at 1 mg/mL; data not shown.
For data set [7], the target named is hBD-3_(loop) peptide (C2–C4 loop region of hBD-3 with C-terminal linker) (human). The data set is described as follows: SPR. Background: Surface plasmon resonance follows binding to a sensor surface in real time, without labels.
Data set [8] deals with hNP-1_(loop) peptide (C2–C4 loop region of hNP-1 with C-terminal linker) (human). The data set is described as follows: SPR.
Data set [9] has as its target hBD-2_(loop) peptide (C2–C4 loop region of hBD-2 with C-terminal linker) (human). The data set is described as follows: SPR.
Data set [10] has as its target human β-defensin 3 (hBD-3) (human) (UniProt P81534). The data set is described as follows: SPR.
Data set [11] has as its target human α-defensin 1 (hNP-1) (human). The data set is described as follows: SPR.
The target of data set [12] is human β-defensin 2 (hBD-2) (human) (UniProt O15263). The data set is described as follows: SPR.
The target of data set [13] is hBD-3_(loop) peptide (C2–C4 loop region of hBD-3 with C-terminal linker) (human). The experiment in a line: SPR. The source holds these as a separate data set.
Data set [14] deals with hNP-1_(loop) peptide (C2–C4 loop region of hNP-1 with C-terminal linker) (human). The data set is described as follows: SPR. This is another data set of the same source.
The target in data set [15] is hBD-2_(loop) peptide (C2–C4 loop region of hBD-2 with C-terminal linker) (human). The data set is described as follows: SPR. This is another data set of the same source.
The conditions of data set [16]: cited from earlier work.

human β-defensin 2 (hBD-2) (human), sequence (O15263 24-64): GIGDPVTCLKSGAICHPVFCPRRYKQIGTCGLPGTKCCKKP
human β-defensin 3 (hBD-3) (human), sequence (P81534 23-67): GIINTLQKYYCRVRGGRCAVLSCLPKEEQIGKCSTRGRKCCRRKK

Turning to “LL-37: alpha helical peptide, the only member of the cathelicidin family found in humans”, the “survival of the parent strain at 10 μg/mL” value in data set [1] is reported as “neither the parent strain nor the ΔsapA mutant survived”. The “SapA binding to LL-37 (SPR), result in words” value with NTHi SapA [2] is “low affinity”. For the same substance, in data set [3], the “oligomeric state in solution” value was “higher order oligomers”. Further, in the data set with NTHi SapA [4], the “affinity to labeled SapA, result in words” value is “low affinity”. Also, the “survival of the ΔsapA mutant at 10 μg/mL” value in data set [5] is given as “neither the parent strain nor the ΔsapA mutant survived”. Moreover, the “aggregation by dynamic light scattering” value in [6] was “aggregated at high concentrations”.
By Kd is commonly meant a measure of binding affinity in units of concentration. Regarding “NTHi SapA (residues 32–546), wild type (from UniProt Q4QL73 32-546) (natural protein)”, the ka1 (two-state model, first step) in data set [7] stood at 280000 M⁻¹ s⁻¹; in data set [8], 880000 M⁻¹ s⁻¹; in data set [9], 760000 M⁻¹ s⁻¹; in data set [10] it was 710000 M⁻¹ s⁻¹; in data set [11] it was 360000 M⁻¹ s⁻¹; in [12], 630000 M⁻¹ s⁻¹. The substance further had a ka1 (two-state model, first step) in [15] of 750000 M⁻¹ s⁻¹. Besides, the ka2 (two-state model, second step) came out at 0.012 s⁻¹ in [7]; 0.0064 s⁻¹ in data set [8]; 0.0095 s⁻¹ in [9]; 0.0059 s⁻¹ in [10]; 0.0061 s⁻¹ in data set [11]; 0.013 s⁻¹ in data set [12]. Also, the ka2 (two-state model, second step) in data set [13] amounted to 0.004 s⁻¹; in data set [14] it was 0.0026 s⁻¹; in data set [15], 0.0024 s⁻¹. For the same substance, the kd1 (two-state model, first step) amounted to 0.028 s⁻¹ in data set [7]; 0.034 s⁻¹ in data set [9]; 0.019 s⁻¹ in [10]; 0.012 s⁻¹ in [11]; 0.047 s⁻¹ in [12]; 0.033 s⁻¹ in [13]. For the same substance, the kd1 (two-state model, first step) in data set [14] amounted to 0.023 s⁻¹; in data set [15] it was 0.019 s⁻¹. In addition, the kd2 (two-state model, second step) was found to be 0.00012 s⁻¹ in data set [7]; 0.00045 s⁻¹ in data set [8]; 0.00024 s⁻¹ in data set [9]; 0.0022 s⁻¹ in data set [10]; 0.00069 s⁻¹ in data set [11]; 0.0026 s⁻¹ in data set [12]. In addition, the kd2 (two-state model, second step) in data set [13] came out at 0.003 s⁻¹; in data set [14], 0.0019 s⁻¹; in data set [15], 0.0014 s⁻¹. Further, the Kd in [8] was found to be 3.8 nM; in data set [10] it was 10.5 nM; in data set [11] it was 4 nM; in [12], 17.5 nM; in data set [13], 17.2 nM; in [14], 17.1 nM. The Kd in data set [15] is 9.5 nM.
For PR-39, in data set [16], the net charge entry is recorded as “+10”.
As to PSSEQ [hBD-3PSSEQ], the “affinity to labeled SapA, result in words” value on NTHi SapA [4] is reported as “completely abolished affinity”.
Still for that read-out and setting: with SSYGT [hNP-1SSYGT] the entry was “completely abolished affinity”; with SSYKQ [hBD-2SSYKQ], “completely abolished affinity”.
For the substance protamine, the net charge entry in data set [16] was “+21”.
